Biological target: T1, 合成的G6PC多肽 (synthetic G6PC immunogen peptide, sequence range 80-120aa) (human) (UniProt P35575)
T1 sequence (peptide, looked up): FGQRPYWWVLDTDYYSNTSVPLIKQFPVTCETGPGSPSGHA
Experiment: indirect ELISA, serial two-fold dilution of the antibody; coating antigen not stated (taken to be the immunogen peptide)

抗体效价 (ELISA titer): 1.2e+07
B1: 兔单克隆抗体OTIR5G10 (rabbit anti-human glucose-6-phosphatase (G6PC) monoclonal antibody OTIR5G10) (antibody, V domains shown)
VH: QSVEESGGRLVTPGTPLTLTCTVSGADLSTYGVIWVRQAPGKGLEYIAAIVSGGRPYYRHWAKGRFTISKTSSTTVELKITSPTTEDTATYFCVLGNLWGQGTLVTVSS
VL: AQVLTQTASPVSAAVGGTVTINCQASQSVYSNNYLSWFQQKPGQPPKQLIYRASKLASGVSSRFKGSGSGTQFTLTISDVQCDDAATYYCLGGYDCSSADFGGGTEVVVK

— patent publication CN116554335A
